B1: ST-21 liposomal aptamer (structured_DNA)
DNA: ATTGACCGCTGTGTGACGCAACACTCAAT
modifications: 3'-TEG-cholesterol
B2: ST-21M liposomal aptamer (structured_DNA)
DNA: ATTGACCTCTGTGTGACGCAACACTCAAT
modifications: 3'-TEG-cholesterol

Target: streptavidin (UniProt P22629 25-183)
Test: plate binding assay, liposome SRB fluorescence; at least 10-fold over aptamer-free liposomes; displaced by biotin; Streptavidin (10 ug/ml) coated plate, blocked with 1% BSA and 0.01 mg/ml salmon sperm DNA in TBS; 80 ul liposomal aptamer 1 h at RT; washes in TBS-sucrose; pH and salt not given
Conditions: protein: commercial; chain copies: 4; label: SRB-encapsulating liposome

Sequence of streptavidin (P22629 25-183): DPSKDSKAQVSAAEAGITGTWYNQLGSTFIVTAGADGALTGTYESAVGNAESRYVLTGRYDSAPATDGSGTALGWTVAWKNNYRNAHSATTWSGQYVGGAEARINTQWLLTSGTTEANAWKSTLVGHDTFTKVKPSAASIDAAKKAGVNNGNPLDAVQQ

Binder | binding result
B1 | binds
B2 | binds
